Results taken from the DeepSol protein solubility set.

test: soluble on expression in E. coli; label from the status in PepcDB or PDB records

Sequence	soluble on expression in E. coli
MHPTGPQLGPDVLFRESKMKVTLTFNEQRRAAYRQQGLWGDASLADYWQQTARAMPDKIAVVDNHGASYTYSALDHAASCLANWMLAKGIESGDRIAFQLPGWCEFTVIYLACLKIGAVSVPLLPSWREAELVWVLNKCQAKMFFAPTLFKQTRPVDLILPLQNQLPQLQQIVGVDKLAPATSSLSLSQIIADNIPLTTAITTHGDELAAVLFTSGTEGLPKGVMLTHNNILASERAYCARLNLTWLDVFMMPAPLGHATGFLHGVTAPFLIGARSVLLDIFTPDACLALLEQQRCTCMLGATPFVYDLLNLLEKQPADLSALRFFLCGGTTIPKKVARECQQRSIKLLSVYGSTESSPHAVVNLDNSLSRFMHTDGYAAAGVEIKVVDDARKTLPPGCEGEEASRGPNVFMGYFDEPELTARALDEEGWYYSGDLCRMDEAGYIKITGRKKDIIVRGGENISSREVEDILLQHPKIHDACVVAMPDERLGERSCAYVVLKAPHHSLSLEEMAAFFSRKRVAKYKYPEHIVVIEKLPRTASDKIQKFLLRKDIIRRLTQDVCEEIE	not soluble
MAWWKAWIEQEGVTVASSSHFNPDPDAETLYKAMKGIGTNEQAIIDVLTKRSNTQRQQIAKSFKAQFGKDLTETLKSELSGKFERLIVALMYPPYRYEAKELHDAMKGLGTKEGVIIEILASRTKNQLREIMKAYEEDYGSSLEEDIQADTSGYLERILVCLLQGSRDDVSSFVDPALALQDAQDLYAAGEKIRGTDEMKFITILCTRSATHLLRVFEEYEKIANKSIEDSIKSETHGSLEEAMLTVVKCTQNLHSYFAERLYYAMKGAGTRDGTLIRNIVSRSEIDLNLIKCHFKKMYGKTLSSMIMEDTSGDYKNALLSLVGSDP	soluble
MGHHHHHHSHMTLVLSMNRFCEPIVSEGAAEIAGYQTLWEADSYGGPSPPGPAQAPLQGDRGAGPPLAGSHYRGISNPITTSKITYFKRKYVEEEDFHPPLSSCSHKEQSRGQLVEDMTIKRHQLRNKYKTRIQGFLCDAARFLYPSNKCICDRLKNDD	not soluble
FMAKLTSAVPVLTARDVAGAVEFWTDRLGFSRDFVEDDFAGVVRDDVTLFISAVQDQVVPDNTLAWVWVRGLDELYAEWSEVVSTNFRDASGPAMTEIGEQPWGREFALRDPAGNCVHFVAEEQD	soluble
MKSTFSVLFFVKKDKQKINGSYPIFVRITIDGVASRFNSKLDVQPKLWDGKAGKAAGRSAEATRINRLLDDINASLNTIYHELQRRDNYVTAEKVKNEFLGHSENHDTILNLFQKHNDDVKQLVGISKTIATYRKYEVTRRHLAEFIQSKYNLSDISIKEITPMFITDFELYLRTTCKCGYNTTAKFMQFFKRIILIARNNGILIGDPFANYKIRLEKVDRGYLTEDEIKIILKKKMVSERLEQVRDVFIFSCFSGLAYVDVANLKEDNIRKSFDGNLWIITKRQKTNTDVNVPLLDIPKMILEKYKGKLPNGKVLPIISNQK	not soluble
MAHDLARGDKSDLRDKVVKPITNNVSVLVMGVDESDVRGKEYGDAIRTDALLLATFNKDSKTVKLLSIPRDTYTYIPVEKKKDKITHAHAYGSTKNGKDGGPQASIDAVEKLLNVPVDYFVKFNFKSFMKIVDDLGGIEVDVPVEFTEQDSNDNADAIHLKKGVQKLNSEEALALARTRHIDSDAMRGQRQQLVIEAILKKLTSVGSVTKVGNIIDDINGQFVTNLTFDDMLSFYKYGSDSEIEKLQIQGEDCYMAKGLEHHHHHH	soluble
MGSDKIHHHHHHMRYLSKDILEEVITQRPSDSYKSNFGRVVLIGGNRQYGGAIIMSTEACINSGAGLTTVITDVKNHGPLHARCPEAMVVGFEETVLLTNVVEQADVILIGPGLGLDATAQQILKMVLAQHQKQQWLIIDGSAITLFSQGNFSLTYPEKVVFTPHQMEWQRLSHLPIEQQTLANNQRQQAKLGSTIVLKSHRTTIFHAGEPFQNTGGNPGMATGGTGDTLAGIIAGFLAQFKPTIETIAGAVYLHSLIGDDLAKTDYVVLPTKISQALPTYMKKYAQPHTAPDSELLEQKRSR	not soluble
MSLRGNFFSFVRISGQSMSPNLVNNQIVLLEKKANVSRGTVIVSKTNNLQKQNTGVQDIALRVVALPGDKVNYKKGQLYVNGKKVNQSYISSQVKTETGMSIDTGWSINSLSLSKNWPKSQRNIKKVQKNSYFVLADNRIDPVDSRQYGLIKKRQIEGVVKVFFLGNKNKDEGHHHHHH	not soluble
GMAQAQTQGQEEEQKKKILIVVTHGPEDLDRTYAPLFMASISASMEYETSVFFMIKGPKLLDKKWQEEERKKGGNPFIHFFDMAKENGVKMYVCVQSLKDMCHMKEDDVVEGIELVGGSTLIDLTLEADRTLFF	soluble
MSLTWFDLVTPKSVMFFKPFIEELKRRDREVLVTAREGEGYSEVVELLNLYKIPFFNRGGFGGAKLCDKLKASIHRQLELMEFIEQHSIKRLVCLCSVDANRVAFGLGIPIVNFYDIPLSDYKTDFRRALPQARLTLPLSNKAFRPFMVPEEIFFRFGLEHDQIFEYGFLDVVAWLRDFQPSREFYEKVLKDYGLDTSLPTIVVREEEYKASYVMKKYPILYEGLKVLKERLRANILVIPRYEPEAVAELLPFAKVLKEKIVIQHILAYCDLFIGGGGTLNSEACFFGTPTISTRSFVSHYDKFLMDLALMDKVDSIEELIIKAERIIGNRNGYAKQIFDRMEFDVGSMVDEILKEKEGAEGHHHHHH	soluble
MAHHHHHHMIDLTGKTSLITGASSGIGSAIARLLHKLGSKVIISGSNEEKLKSLGNALKDNYTIEVCNLANKEECSNLISKTSNLDILVCNAGITSDTLAIRMKDQDFDKVIDINLKANFILNREAIKKMIQKRYGRIINISSIVGIAGNPGQANYCASKAGLIGMTKSLSYEVATRGITVNAVAPGFIKSDMTDKLNEKQREAIVQKIPLGTYGIPEDVAYAVAFLASNNASYITGQTLHVNGGMLMV	soluble
PVTSISHEQLQQVHAEAGLTIALSTSVGDDLFYVDHVSSEPEYAYLAENRLRRSLLRTSAGWLLLADREQRDIWAYLNSRPVADADYIEQFLYALEALRATGVCAAPGVAVEHGDGVSVALRERGRTIATLGVVGVRETIIERRDELAKICLRHAEEWGFR	soluble
MIEISTSATSTTVTIEGDLDLSTRPQFHAATAKLGAVRRPLLVIDASRITFLDSTGAAFLISLADATRKRGGAAVLRGADERVLFVLETCGALDFFRLDPEPGLQEGDGGTRLRG	not soluble
GAMEGIKVFLHERELWLKFHEVGTEMIITKAGRRMFPSYKVKVTGLNPKTKYILLMDIVPADDHRYKFADNKWSVTGKAEPAMPGRLYVHPDSPATGAHWMRQLVSFQKLKLTNNHLDPFGHIILNSMHKYQPRLHIVKADENNGFGSKNTAFCTHVFPETAFIAVTSYQNHKITQLKIENNPFAKGFRGSDDMELHRMSRMQ	soluble
MKVISLKKDSFNKGGAVITLLPEDKEDLFTVYQIVDKDDELIFKKKFTSKLDEAGKKKSTDLVKLKIKVISEDFDMKDEYLKYKGVTVTDESGASNVDIPVGKYLSFTLDYVYPFTIIKQNFNKFMQKLLNEACNIEYKSDTAAVVLQEGIAHVCLVTSSSTILKQKIEYSMPKKKRTTDVLKFDEKTEKFYKAIYSAMKKDLNFDKLKTIILCSPGFYAKILMDKIFQYAEEEHNKKILDNKGMFFIAHCSTGYLQGINEVLKNPLYASKLQDTKYSKEIMVMDEFLLHLNKDDDKAWYGEKEVVKAAEYGAISYLLLTDKVLHSDNIAQREEYLKLMDSVESNGGKALVLSTLHSLGEELDQLTGIACILKYPLPDLDEDDGEE	soluble
MALLGPKEQEIVRERLANLTRDVEMVLFTDSSTLIAPGKEPCLYCKETKQLLEELSALSDKLHLVVYDLATPEGREKAGAYKVEAAPTLILREKGSEAINLRYRGIPAGYEFASLLEDIEMLGRDGHGLPENVVQELNDLPEEVVLQVFVTPTCPYCPQAVRTAHRLAYASPKVWGEMIEANEFPALSDRYRIHGVPDTIINHGKERVLGAQPLSQFLQAIRKAVGVRA	soluble
MGYNETIYHKPFIKINMPDVLGKPDATQIPDDVWLDILINYLQPQDIVNLSEINNRLSRLFKTQHTQSEQLNQKKTLGILKVFAGYSSTFLFARLNGKQRLFKTRNWSAADSDNINPILMPISLPENISVIESIQSTYKHTVVVGRDKHDQIIVATNKINQDYAKQETSHNQLIPLPLRDINISLVSAGNEEDYILNPIFSFPATQQGNCILNCIK	not soluble
